In assay [1] the target is Selenomethionine substituted TRPM7cc (rat) (UniProt Q925B3). The assay can be described thus: crystal structure.
The target in assay [2] is TRPM7 coiled-coil assembly domain (TRPM7cc), rat TRPM7 residues 1230-1282 (rat) (UniProt Q925B3). The assay can be described thus: crystal structure.
The target is the same in assay [3]. As to the kind of experiment: SEC.
Assay [4] has the same target. As to the kind of experiment: AUC.

Where “and” joins values, the source holds several entries; their conditions need not be identical. Identical values can stand only once.

The term stoichiometry N denotes a count of units in the complex or per binding partner.

In assay [1], “Selenomethionine substituted TRPM7cc (from UniProt Q925B3 1230-1282) (domain or fragment)” had a stoichiometry N of 4.
Turning to “TRPM7 coiled-coil assembly domain (TRPM7cc), rat TRPM7 residues 1230-1282 (from UniProt Q925B3 1230-1282) (domain or fragment)”, the stoichiometry N in assay [2] was 4; in assay [3], 4; in assay [4], 4.1 and 3.7.

For the origin of these results see publication PMC2630241.
